Data set [1] relates to human MSP C672A analog.
In data set [2] the test system is murine MSP C677A analog.
The subject of data set [3] is recombinant human macrophage stimulating protein (MSP).
In data set [4] the test system is recombinant murine macrophage stimulating protein (MSP).

The text below walks through data of patent US20040260064.

Sequence of human kallikrein (Enzyme System Products) (chain, as listed by the source): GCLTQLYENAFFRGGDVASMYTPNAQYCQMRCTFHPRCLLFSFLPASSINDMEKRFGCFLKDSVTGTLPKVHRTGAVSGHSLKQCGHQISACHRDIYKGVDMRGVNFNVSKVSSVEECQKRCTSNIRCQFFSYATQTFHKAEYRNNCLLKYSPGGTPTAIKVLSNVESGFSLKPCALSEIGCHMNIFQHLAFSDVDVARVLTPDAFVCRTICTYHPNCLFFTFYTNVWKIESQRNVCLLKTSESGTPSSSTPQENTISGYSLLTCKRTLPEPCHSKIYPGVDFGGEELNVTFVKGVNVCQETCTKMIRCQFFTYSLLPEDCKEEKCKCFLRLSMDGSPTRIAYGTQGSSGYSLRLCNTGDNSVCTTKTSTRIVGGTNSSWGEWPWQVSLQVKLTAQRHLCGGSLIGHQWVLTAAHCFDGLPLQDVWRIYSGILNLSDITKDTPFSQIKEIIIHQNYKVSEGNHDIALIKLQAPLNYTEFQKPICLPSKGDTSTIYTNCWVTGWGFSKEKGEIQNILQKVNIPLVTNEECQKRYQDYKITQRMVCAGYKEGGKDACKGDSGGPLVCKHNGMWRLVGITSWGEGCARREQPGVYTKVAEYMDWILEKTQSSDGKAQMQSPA
Sequence of human MSP C672A analog (chain, as listed by the source C672A): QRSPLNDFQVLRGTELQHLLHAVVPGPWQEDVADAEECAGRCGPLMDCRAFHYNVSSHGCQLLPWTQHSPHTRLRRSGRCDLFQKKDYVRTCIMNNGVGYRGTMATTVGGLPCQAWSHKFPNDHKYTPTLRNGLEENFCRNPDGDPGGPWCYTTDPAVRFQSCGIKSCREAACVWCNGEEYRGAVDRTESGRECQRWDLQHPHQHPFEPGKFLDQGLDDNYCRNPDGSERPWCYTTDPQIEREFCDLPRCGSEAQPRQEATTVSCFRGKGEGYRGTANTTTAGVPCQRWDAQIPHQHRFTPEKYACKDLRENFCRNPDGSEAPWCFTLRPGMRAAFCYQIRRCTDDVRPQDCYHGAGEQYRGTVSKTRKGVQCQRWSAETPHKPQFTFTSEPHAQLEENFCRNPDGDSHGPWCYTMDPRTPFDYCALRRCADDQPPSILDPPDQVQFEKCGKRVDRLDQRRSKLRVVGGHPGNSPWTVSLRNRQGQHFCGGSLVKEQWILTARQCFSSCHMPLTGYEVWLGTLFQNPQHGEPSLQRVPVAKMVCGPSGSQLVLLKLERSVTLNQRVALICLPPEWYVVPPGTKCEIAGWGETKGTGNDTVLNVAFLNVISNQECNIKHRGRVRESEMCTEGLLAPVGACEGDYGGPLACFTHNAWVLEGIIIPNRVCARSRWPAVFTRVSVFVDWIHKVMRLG
Sequence of murine MSP C677A analog (chain, as listed by the source C677A): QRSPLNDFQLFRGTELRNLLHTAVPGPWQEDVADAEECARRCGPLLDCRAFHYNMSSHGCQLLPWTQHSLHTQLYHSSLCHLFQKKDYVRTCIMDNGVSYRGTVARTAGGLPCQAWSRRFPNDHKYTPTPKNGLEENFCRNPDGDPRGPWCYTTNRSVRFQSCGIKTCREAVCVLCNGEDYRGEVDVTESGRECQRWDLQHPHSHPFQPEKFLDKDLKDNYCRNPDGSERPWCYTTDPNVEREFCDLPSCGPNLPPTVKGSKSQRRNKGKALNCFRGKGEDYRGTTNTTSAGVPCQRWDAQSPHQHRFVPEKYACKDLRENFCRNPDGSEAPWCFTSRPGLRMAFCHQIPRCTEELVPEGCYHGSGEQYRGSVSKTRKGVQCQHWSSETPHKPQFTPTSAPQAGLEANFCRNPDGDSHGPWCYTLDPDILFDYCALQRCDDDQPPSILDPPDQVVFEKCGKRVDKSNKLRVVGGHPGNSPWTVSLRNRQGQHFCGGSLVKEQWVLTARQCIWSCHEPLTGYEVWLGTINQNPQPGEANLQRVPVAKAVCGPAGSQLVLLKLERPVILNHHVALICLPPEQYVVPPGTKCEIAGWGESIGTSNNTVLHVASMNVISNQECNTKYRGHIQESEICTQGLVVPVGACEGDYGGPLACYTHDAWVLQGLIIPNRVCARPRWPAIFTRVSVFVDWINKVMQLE

With “human kallikrein (Enzyme System Products)”, the “cleavage of proMSP analog seen by SDS-PAGE under reducing conditions” value was “Kallikrein treatment efficiently cleaves proMSP or proMSP analog between the α and β subunits” in data set [1]; “Kallikrein treatment efficiently cleaves proMSP or proMSP analog between the α and β subunits” in data set [2]. The “cleavage of proMSP seen by SDS-PAGE under reducing conditions” value is “Kallikrein treatment efficiently cleaves proMSP or proMSP analog between the α and β subunits” in data set [3]; “Kallikrein treatment efficiently cleaves proMSP or proMSP analog between the α and β subunits” in data set [4].
